From patent publication US11578136B2, “Compositions and methods for treating cancer” (INNATE PHARMA, priority 2017, dated 2023)

T1: soluble recombinant human CD39 protein (Homo sapiens, UniProt P49961)
T1 construct: made in house; host or cells: CHO cells
T1 sequence (P49961 with tags, fused parts or gaps): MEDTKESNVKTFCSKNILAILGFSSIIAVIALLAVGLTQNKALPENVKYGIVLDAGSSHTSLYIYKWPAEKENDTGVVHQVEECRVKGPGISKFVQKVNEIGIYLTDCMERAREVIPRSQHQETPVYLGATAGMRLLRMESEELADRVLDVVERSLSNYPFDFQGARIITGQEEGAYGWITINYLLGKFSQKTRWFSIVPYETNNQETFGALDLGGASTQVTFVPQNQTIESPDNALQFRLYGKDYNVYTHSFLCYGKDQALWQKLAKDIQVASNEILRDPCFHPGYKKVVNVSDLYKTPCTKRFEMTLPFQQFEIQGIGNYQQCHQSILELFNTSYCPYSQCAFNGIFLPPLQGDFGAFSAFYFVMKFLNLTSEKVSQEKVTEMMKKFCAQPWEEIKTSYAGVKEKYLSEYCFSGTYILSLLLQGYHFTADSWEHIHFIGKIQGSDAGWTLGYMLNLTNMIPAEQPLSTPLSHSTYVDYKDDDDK


Key:
[1] = test system: NTPDase1, NTPDase3, NPP1 or mouse NTPDase8; details: not specific for CD39; cited from earlier work
[2] = target: T1, soluble recombinant human CD39 protein; assay: Inhibition of the enzymatic activity of soluble CD39 (Cell Titer Glo); format: biochemical; details: result in words; 400 ng/ml sCD39, 20 μM ATP
Protocol: The inhibition by antibodies of the enzymatic activity of soluble CD39 protein produced was evaluated using Cell Titer Glo™ (Promega, reference G7571) that allows assessment of ATP hydrolysis through use of a reagent that generates a luminescent signal proportional to the amount of ATP present. In this way, inhibition of the soluble-CD39-meidatd ATP hydrolysis can be assessed. Briefly, dose ranges of anti-CD39 antibodies from 100 μg/ml to 6×10^−3 μg/ml were incubated with 400 ng/ml of soluble recombinant human CD39 protein having the amino acid sequence described in the Methods section (SEQ ID NO: 45), for 1 h at 37° C. 20 μM ATP was added to the plates for 30 additional minutes at 37° C. before addition of CTG (Cell Titer Glo) reagent. Emitted light was quantified using an Enspire™ luminometer after a short incubation period of 5 min in the dark. Anti-CD39 antibody efficacy was determined by comparing emitted light in presence of antibody with ATP alone (maximal light emission) and ATP together with soluble CD39 protein (minimal light emission).

[3] = test system: CD39 mutants transfected in Hek-293T cells; assay: Epitope mapping: binding to CD39 mutants by flow cytometry; set-up: species or system human
Protocol: CD39 mutants were generated by PCR. The sequences amplified were run on agarose gel and purified using the Macherey Nagel PCR Clean-Up Gel Extraction kit (reference 740609). The purified PCR products generated for each mutant were then ligated into an expression vector, with the ClonTech InFusion system. The vectors containing the mutated sequences were prepared as Miniprep and sequenced. After sequencing, the vectors containing the mutated sequences were prepared as Midiprep using the Promega PureYield™ Plasmid Midiprep System. HEK293T cells were grown in DMEM medium (Invitrogen), transfected with vectors using Invitrogen's Lipofectamine 2000 and incubated at 37° C. in a CO2 incubator for 48 hours prior to testing for transgene expression. The targeted amino acid mutations in the table 1 below are shown using numbering of SEQ ID NO: 1.
In order to define the epitopes of anti-CD39 antibodies, we designed CD39 mutants defined by substitutions of amino acids exposed at the molecular surface over the surface of CD39. Mutants were transfected in Hek-293T cells, as shown in the table 1, using numbering of SEQ ID NO: 1.
Dose-ranges of I-394 (10-2.5-0.625-0.1563-0.0391-0.0098-0.0024-0.0006 μg/ml) are tested on the 20 generated mutants by flow cytometry. […] Mutant 5 contains amino acid substitutions at residues Q96, N99, E143 and R147.
Mutants were transfected in Hek-293T cells, as shown in the table 1, using numbering of SEQ ID NO: 1. Dose-ranges of antibodies I-394 were tested on the 20 mutants by flow cytometry. […] Mutant 19 includes substitutions at residues R138, M139 and E142. The core epitope of I-394 thus includes one or more (or all of) residues R138, M139 and E142.
Mutants were transfected in Hek-293T cells, as shown in the table 1, using numbering of SEQ ID NO: 1.Dose-ranges of test antibodies (10-2.5-0.625-0.1563-0.0391-0.0098-0.0024-0.0006 μg/ml) are tested on the 20 generated mutants by flow cytometry.

Molecule | type of inhibition of NTPDases [1] | inhibition of the enzymatic activity of soluble CD39 protein [2] | binding to mutant 11 of CD39 ([3]; mutant 11: N371K, L372K, E375A, K376G, V377A, insertion 377V) | binding to any other mutant of the 20 CD39 mutants ([3]; remaining mutants of Table 1)
CCN(CC)c1ncnc2c1ncn2[C@@H]1O[C@H](COP(=O)(O)OP(=O)(O)C(Br)(Br)P(=O)(O)O)[C@@H](O)[C@H]1O [ARL67156] | weak competitive inhibitor | – | – | –
I-399: anti-CD39 antibody, VH SEQ ID NO: 30, VL SEQ ID NO: 31 (antibody, listed as Mus musculus, V domains shown) VH: PVQLQQPGAEVVMPGASVKLSCKASGYTFTSFWMNWMRQRPGQGLEWIGEIDPSDFYTNSNQRFKGKATLTVDKSSSTAYMQLSSLTSEDSAVYFCARGDFGWYFDVWGTGTSVTVSS VL: EIVLTQSPTTMTSSPGEKITFTCSASSSINSNYLHWYQQKPGFSPKLLIYRTSNLASGVPTRFSGSGSGTSYSLTIGTMEAEDVATYYCQQGSSLPRTFGGGTKLEIK | – | showed inhibition | loss of binding | without loss of binding
